Reference: paper PMC5512444 (Structure (London, England : 1993), 2017)
Substitutions are numbered along the chain they refer to. Where two headings read alike, the source gives them in different places.

Experiments:
Ube2g2 (Homo sapiens) [1] = molecular target: Ube2g2 (Homo sapiens) (UniProt P60604); details: cited from earlier work
Ube2g2 (Homo sapiens) [2] = molecular target: Ube2g2 (Homo sapiens) (UniProt P60604); details: cited from earlier work; remark: listed apart in the source
Ube2g2 (Homo sapiens) [3] = molecular target: Ube2g2 (Homo sapiens) (UniProt P60604); details: cited from earlier work; remark: listed apart in the source
Ube2g2 (Homo sapiens) [4] = molecular target: Ube2g2 (Homo sapiens) (UniProt P60604); details: cited from earlier work; remark: listed apart in the source
C89K-Ube2g2 = molecular target: T1, C89K-Ube2g2 (human, UniProt P60604 1-165, C89K); test: NMR 15N CPMG relaxation dispersion of the complex compared with the free protein
T1 sequence: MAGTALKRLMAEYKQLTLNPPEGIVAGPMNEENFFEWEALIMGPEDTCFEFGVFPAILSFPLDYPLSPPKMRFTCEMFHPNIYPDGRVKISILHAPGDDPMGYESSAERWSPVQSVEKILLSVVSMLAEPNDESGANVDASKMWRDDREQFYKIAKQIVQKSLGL

Y103G-Ube2g2 = molecular target: T2, Y103G-Ube2g2 (human, UniProt P60604 1-165, Y103G); test: ITC
T2 sequence: T1 sequence with K89C, Y103G

Ube2g2 (wild type) = molecular target: T3, Ube2g2 (wild type) (human, UniProt P60604 1-165); test: NMR 15N heteronuclear NOE of the complex compared with the free protein
T3 sequence: T1 sequence with K89C

**Q.** Which results are given for gp78 RING (from UniProt Q9UKV5)?
**A.** Kd (Ube2g2 (Homo sapiens) [1]): 3000 nM; Kd (Ube2g2 (Homo sapiens) [2]): 144000 nM

**Q.** With gp78 RING-G2BR (from UniProt Q9UKV5) as the molecule, how does the Kd (Ube2g2 (Homo sapiens) [3]) read?
**A.** The Kd was 38 nM.

**Q.** For gp78 G2BR (from UniProt Q9UKV5), which Kd (Ube2g2 (Homo sapiens) [4]) is on record?
**A.** The Kd was 21 nM.

B1: RING-G2BR fusion protein of gp78 (domain or fragment, human)
chain: KNYLRVVGNMEARFAVATPEELAVNNDDCAICWDSMQAARKLPCGHLFHNSCLRSWLEQDTSCPTCRMSLNIADNNRVREEGGGGGGGSSGSSGGSGGGSGSSSGGGGGSGGGSGGGGGGGADERQRMLVQRKDELLQQARKRFLNK
**Q.** Does B1 bind (C89K-Ube2g2)?
**A.** Result: binds

**Q.** With WSADERQRMLVQRKDELLQQARKRFLNK [G2BR peptide of gp78 (Ube2g2 binding region)] as the molecule, how does the Kd (Y103G-Ube2g2) read?
**A.** The Kd was 59 ± 6 nM.

**Q.** And the dH (Y103G-Ube2g2)?
**A.** Its dH is -39.5 ± 0.4 kcal/mol.

**Q.** What about the “stoichiometry N” value (Y103G-Ube2g2) of the same molecule?
**A.** Its value is 0.95.

**Q.** Does WSADERQRMLVQRKDELLQQARKRFLNK [G2BR peptide of gp78 (Ube2g2 binding region)] bind (Ube2g2 (wild type))?
**A.** Result: binds
